Source: doi:10.1101/557132

How the values were obtained:
[1] = target: human SNAP_GLP1R on CHO-K1 cells (human) (UniProt P43220)
[2] = target: SNAP_GLP1R on YFP-AD293 cells (human) (UniProt P43220); experiment: fluorescent ligand labelling of cells
[3] = target: SNAP_GLP1R on YFP-AD293 cells (human) (UniProt P43220)

SNAP_GLP1R on YFP-AD293 cells (human), sequence (P43220 24-463): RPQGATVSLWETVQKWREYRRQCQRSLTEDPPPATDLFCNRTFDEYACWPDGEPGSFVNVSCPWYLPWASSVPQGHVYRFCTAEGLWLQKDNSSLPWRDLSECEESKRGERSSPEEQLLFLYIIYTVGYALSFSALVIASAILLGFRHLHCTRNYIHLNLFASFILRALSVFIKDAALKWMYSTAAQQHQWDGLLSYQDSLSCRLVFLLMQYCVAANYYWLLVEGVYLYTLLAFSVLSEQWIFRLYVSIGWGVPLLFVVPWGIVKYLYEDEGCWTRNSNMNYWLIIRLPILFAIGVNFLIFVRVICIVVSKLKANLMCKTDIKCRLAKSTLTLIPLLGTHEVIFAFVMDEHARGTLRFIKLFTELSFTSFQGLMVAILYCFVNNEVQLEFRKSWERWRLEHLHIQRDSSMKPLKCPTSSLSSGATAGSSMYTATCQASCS
human SNAP_GLP1R on CHO-K1 cells (human), sequence (P43220 24-463): as above

Row | Substance | block of GLP-1-induced cAMP production through GLP1R (cAMP-Glo) [1] [nM] | cAMP production (cAMP-Glo) with the positive allosteric modulator BETP [1] [nM] | concentration at maximum labeling [2] [nM] | cAMP production (cAMP-Glo) [3] [nM] | cAMP production (cAMP-Glo) with the positive allosteric modulator BETP [3] [nM]
1 | LUXendin645 (peptide) | 73.1 | 9.3 | 100 |  | 
2 | Exendin4(9-39) (peptide) | 38.4 |  |  |  | 
3 | LUXendin555 (peptide) |  |  |  | 130 | 28.4
4 | S39C-Exendin4(9-39) (peptide) | 34.8 |  |  |  | 
